Measured values as given in paper PMC8062120, “Molecular basis of F-actin regulation and sarcomere assembly via myotilin” (PLoS Biology, 2021).

T1: Full-length myotilin with N-terminal thioredoxin tag (Trx-MYOT) (human, UniProt Q9UBF9 1-498)
T1 construct: myotilin, human, full length; source: E. coli B834 (DE3), purified (HisTrap FF, SEC); not shown: Trx, N-terminal, kept
T1 sequence (looked up): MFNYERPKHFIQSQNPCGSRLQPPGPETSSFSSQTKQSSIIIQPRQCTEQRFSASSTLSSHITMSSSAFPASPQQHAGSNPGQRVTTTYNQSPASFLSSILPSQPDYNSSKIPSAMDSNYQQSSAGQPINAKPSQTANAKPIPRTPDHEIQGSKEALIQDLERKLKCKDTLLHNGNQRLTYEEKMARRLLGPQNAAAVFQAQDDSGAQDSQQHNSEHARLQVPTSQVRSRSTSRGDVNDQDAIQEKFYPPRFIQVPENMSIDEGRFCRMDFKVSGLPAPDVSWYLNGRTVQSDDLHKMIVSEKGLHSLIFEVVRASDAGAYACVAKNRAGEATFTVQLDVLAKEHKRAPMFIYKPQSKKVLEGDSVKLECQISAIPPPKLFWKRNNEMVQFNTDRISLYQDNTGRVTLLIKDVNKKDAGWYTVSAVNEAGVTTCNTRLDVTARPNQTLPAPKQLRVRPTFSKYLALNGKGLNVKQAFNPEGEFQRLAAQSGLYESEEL


Assays:
[1] = target: T1, Full-length myotilin with N-terminal …; experiment: ITC; 25°C; 400 μM ACTN2-EF14 injected into the cell with 20 μM Trx-MYOT or Trx-MYOT-NEECK; 20 mM Hepes, 400 mM NaCl, 250 mM arginine, 5% glycerol, pH 7.5; details: both partners purified
[2] = target: the molecule itself; experiment: SAXS; batch SAXS at high or comparable concentrations; Ig1Ig2^250–444 up to 14.12 mg/ml, Ig1Ig2^250–498 up to 42.8 mg/ml, Ig1Ig2^220–452 up to 52 or 36.6 mg/ml, R405K up to 45.5 mg/ml; 20 mM HEPES, 150 mM NaCl, 5% glycerol, 1 mM DTT, pH 7.4 (one 220–452 set in 20 mM MES, 200 mM NaCl, pH 6.0); mass from I0, Rg, Dmax, P(r); monomer to dimer
[3] = target: F-actin (rabbit skeletal muscle actin, polymerized) (rabbit, UniProt P68135 1-377); experiment: co-sedimentation; F-actin co-sedimentation, conditions B2 (PIPES pH 6.8, 100 mM NaCl); fixed 6 μM myotilin fragment in 20 μl mixed with pre-polymerized F-actin (0 to 60 μM) in 20 μl; one site-specific binding fit; apparent Kd; details: both partners purified

Row | Binder | Kd [3] | further results
1 | α-actinin-2 EF14 (ACTN2-EF14), CAMD encoding all 4 EF-hands (domain or fragment, His6-tag removed with HRV-3C protease; limits not printed (S3 Table), so taken by convention from just before EF-hand 1 (753) to the C-terminus) DAKGITQEQMNEFRASFNHFDRRKNGLMDHEDFRACLISMGYDLGEAEFARIMTLVDPNGQGTVTFQSFIDFMTRETADTDTAEQVIASFRILASDKPYILAEELRRELPPDQAQYCIKRMPAYSGPGSVPGALDYAAFSSALYGESDL | – | Kd [1]: 4200 ± 1200 nM
2 | Myotilin Ig1Ig2^220–452 (domain or fragment, human, UniProt Q9UBF9 220-452, looked up, Dimer only at high concentration; monomeric at low concentrations; source: E. coli, purified (HisTrap, HRV-3C cleavage, SEC); not shown: His tag (from the HisTrap column)) LQVPTSQVRSRSTSRGDVNDQDAIQEKFYPPRFIQVPENMSIDEGRFCRMDFKVSGLPAPDVSWYLNGRTVQSDDLHKMIVSEKGLHSLIFEVVRASDAGAYACVAKNRAGEATFTVQLDVLAKEHKRAPMFIYKPQSKKVLEGDSVKLECQISAIPPPKLFWKRNNEMVQFNTDRISLYQDNTGRVTLLIKDVNKKDAGWYTVSAVNEAGVTTCNTRLDVTARPNQTLPAPK | – | stoichiometry N [2]: 2
3 | Myotilin Ig1Ig2^185–454 (domain or fragment, limits determined by intact protein mass spectrometry of the final product; source: E. coli, purified (GSTrap FF, TEV cleavage, IMAC and GSTrap flow-through, SEC)) MARRLLGPQNAAAVFQAQDDSGAQDSQQHNSEHARLQVPTSQVRSRSTSRGDVNDQDAIQEKFYPPRFIQVPENMSIDEGRFCRMDFKVSGLPAPDVSWYLNGRTVQSDDLHKMIVSEKGLHSLIFEVVRASDAGAYACVAKNRAGEATFTVQLDVLAKEHKRAPMFIYKPQSKKVLEGDSVKLECQISAIPPPKLFWKRNNEMVQFNTDRISLYQDNTGRVTLLIKDVNKKDAGWYTVSAVNEAGVTTCNTRLDVTARPNQTLPAPKQL | 3000 ± 600 nM | –
4 | Myotilin Ig1Ig2^250–498 (domain or fragment, source: E. coli B834 (DE3), purified (HisTrap, HRV-3C cleavage, Resource S cation exchange, SEC); not shown: His tag (from the HisTrap column)) PRFIQVPENMSIDEGRFCRMDFKVSGLPAPDVSWYLNGRTVQSDDLHKMIVSEKGLHSLIFEVVRASDAGAYACVAKNRAGEATFTVQLDVLAKEHKRAPMFIYKPQSKKVLEGDSVKLECQISAIPPPKLFWKRNNEMVQFNTDRISLYQDNTGRVTLLIKDVNKKDAGWYTVSAVNEAGVTTCNTRLDVTARPNQTLPAPKQLRVRPTFSKYLALNGKGLNVKQAFNPEGEFQRLAAQSGLYESEEL | 1200 ± 200 nM | –
5 | Myotilin Ig1Ig2^185–498 (domain or fragment, source: E. coli C41 (DE3), purified (HisTrap FF, HRV-3C cleavage, StrepTrap HP, SEC)) MARRLLGPQNAAAVFQAQDDSGAQDSQQHNSEHARLQVPTSQVRSRSTSRGDVNDQDAIQEKFYPPRFIQVPENMSIDEGRFCRMDFKVSGLPAPDVSWYLNGRTVQSDDLHKMIVSEKGLHSLIFEVVRASDAGAYACVAKNRAGEATFTVQLDVLAKEHKRAPMFIYKPQSKKVLEGDSVKLECQISAIPPPKLFWKRNNEMVQFNTDRISLYQDNTGRVTLLIKDVNKKDAGWYTVSAVNEAGVTTCNTRLDVTARPNQTLPAPKQLRVRPTFSKYLALNGKGLNVKQAFNPEGEFQRLAAQSGLYESEEL | 2000 ± 400 nM | –
